Consider three molecules from US5516656A, “Production of a new hirudin analog and anticoagulant pharmaceutical composition containing the same” (Nippon Mining Company, Limited, priority 1990, dated 1996).

For data set [1], the target named is T1, Thrombin (Homo sapiens, UniProt P00734). Description: Inhibitory action of hirudin against thrombin induced death. In kind it is in vivo, mice. The following applies: for Score: score 0 normal, 1 disappearance of roll over reflection, 2 death within 20 minutes. Set-up: Thrombin (10 NIH unit/10 g) was administered intravenously to male mice. The method, then:
Thrombin (10 NIH unit/10 g) was administered intravenously to male mice (20-25 g), without anesthesia, and the anti-thrombin activity of the tested compound was evaluated by observing the disappearance of roll over reflection and death as indexes. All the tested compounds were dissolved in saline, and 0.05 ml/10 g were administered intravenously 5 min prior to the thrombin injection.

Data set [2] addresses T1, Thrombin. Description: anti-thrombin activity, chromogenic substrate chromozyme TH. The following applies: purified by C4 reverse phase HPLC. It is filed as biochemical. Also noted: purchased Sigma. How it is done: Precipitated cells of each sample were suspended in 1 ml of 50 mM Tris-HCl (pH7.5) containing 25% sucrose and 1 mM EDTA, followed by incubation at room temperature for 10 minutes. After collecting the cells by centrifugation at 6,000×g for 10 minutes, the cells were suspended in 1 ml of cold water to release the substances in the periplasmic space by osmotic shock. Cells were removed from the periplasmic fraction by centrifugation at 6,000×g for 10 minutes. The amount of secreted and periplasmically-accumulated hirudin was determined by measuring the anti-thrombin activity in the supernatant. The antithrombin activity is based on quantitative measurement of the color intensity generated by thrombin's hydrolytic activity on the synthetic chromogenic substrate chromozyme TH (Tocylglycil-prolylarginine-4-nitroanilideacetate, Boeringer-Mannheim) and hirudin's inhibitory activity against thrombin, which will repress color generation.
This reaction was carried out as follows. […]
Both the substrate and chromozymeTH were added to a final concentration of 200 μM to measure the release of p-nitroanilide by the increase of absorbance at 405 nm of the solution per 1 minute, and the anti-thrombin activity (ATU) was calculated.

Data set [3] in a line: Prolongation of bleeding time (tail vein puncture wound). It is filed as in vivo, mice. The settings on record: for Bleeding time: wound 5 minutes after administration. The method, then: Samples were injected into male mice (20-25 g) under anesthesia using sodium pentobarbital (40 mg/kg i.p.) via their tail vein. A puncture wound was made by inserting a 21 G needle (outer diameter 0.85 mm) into the other side of the tail vein 5 minutes after the administration of the test compounds, and the bleeding time of the wound was measured. A filter paper was put on the wound, with changes every 15 seconds. Bleeding time is defined as the time required until no red spot is observed on the filter paper.

Turning to “HV1: hirudin variant 1, natural anti-coagulation peptide of Hirudo medicinalis, produced here by secretion from E. coli [reference compound]”, the figures for the Score with Thrombin [1] (200 μg/10 g weight i.v. 5 min prior to thrombin 10 NIH unit/10 g) and with Thrombin [1] (500 μg/10 g weight i.v. 5 min prior to thrombin 10 NIH unit/10 g) were 0.6 and 0.4, respectively.

B1: HV1C3: hirudin analog having the hirudin HV1 amino acid sequence up to the 52nd amino acid and thereafter substituted with the sequence of HV3 (protein)
chain: VVYTDCTESGQNLCLCEGSNVCGQGNKCILGSDGEKNQCVTGEGTPKPQSHNQGDFEPIPEDAYDE
On to B1, for which the “anti-thrombin activity (specific / relative activity) of purified product” value in the data set with Thrombin [2] is listed as 11,250 ATU/mg. The Bleeding time in data set [3] (50 μg/10 g weight i.v.) is 264.0 ± 17.6 s; in data set [3] (100 μg/10 g weight i.v.) it was 291.0 ± 30.2 s; in data set [3] (200 μg/10 g weight i.v.), 369.0 ± 34.9 s. The “bleeding tendency compared with hirudin HV1” value in data set [3] (mice, in words) is reported as “less bleeding than hirudin HV1”. The Score with Thrombin [1] (20 μg/10 g weight i.v. 5 min prior to thrombin 10 NIH unit/10 g) came to 1.2; with Thrombin [1] (50 μg/10 g weight i.v. 5 min prior to thrombin 10 NIH unit/10 g) it was 0.6; in the data set with Thrombin [1] (100 μg/10 g weight i.v. 5 min prior to thrombin 10 NIH unit/10 g) it was 0.4. Also, the “inhibitory activity compared with hirudin HV1 in thrombin induced death” value in the data set with Thrombin [1] (in vivo, mice, relative to HV1) was 4-5 times.

B2: HV3: natural hirudin variant of 66 amino acids, produced here by secretion from E. coli (protein)
chain: ITYTDCTESGQNLCLCEGSNVCGKGNKCILGSQGKDNQCVTGEGTPKPQSHNQGDFEPIPEDAYDE
Regarding B2, in the data set with Thrombin [2], the “anti-thrombin activity (specific / relative activity) of purified product” value is recorded as 8139 ATU/mg.
